Consider two substances from PMC6364671.

This experiment deals with recombinant human CD74 (C27S) (human) (UniProt P04233). The experiment can be described thus: ELISA. For orientation: In an ELISA, binding on a coated surface is turned into a signal by an enzyme label.

The term IC50 denotes the concentration at which inhibition is half-maximal. For DRα1-mMOG-35-55, the IC50 was determined as 937 nM.

On to “DRα1-hMOG-35-55 (from UniProt P01903 15-97)”, for which the IC50 was found to be 1640 nM.
